# Test results: patent publication US20230416345A1, “NEW TYPE II COLLAGEN BINDING PROTEINS” (Navigo Proteins GmbH, priority 2020, published 2023)
# Substitutions are numbered along the chain they refer to.
# T1: human collagen type III (Homo sapiens, UniProt P02461)
# T1 construct: purchased Abcam ab7535
# T1 sequence (P02461 154-1221 limits assumed): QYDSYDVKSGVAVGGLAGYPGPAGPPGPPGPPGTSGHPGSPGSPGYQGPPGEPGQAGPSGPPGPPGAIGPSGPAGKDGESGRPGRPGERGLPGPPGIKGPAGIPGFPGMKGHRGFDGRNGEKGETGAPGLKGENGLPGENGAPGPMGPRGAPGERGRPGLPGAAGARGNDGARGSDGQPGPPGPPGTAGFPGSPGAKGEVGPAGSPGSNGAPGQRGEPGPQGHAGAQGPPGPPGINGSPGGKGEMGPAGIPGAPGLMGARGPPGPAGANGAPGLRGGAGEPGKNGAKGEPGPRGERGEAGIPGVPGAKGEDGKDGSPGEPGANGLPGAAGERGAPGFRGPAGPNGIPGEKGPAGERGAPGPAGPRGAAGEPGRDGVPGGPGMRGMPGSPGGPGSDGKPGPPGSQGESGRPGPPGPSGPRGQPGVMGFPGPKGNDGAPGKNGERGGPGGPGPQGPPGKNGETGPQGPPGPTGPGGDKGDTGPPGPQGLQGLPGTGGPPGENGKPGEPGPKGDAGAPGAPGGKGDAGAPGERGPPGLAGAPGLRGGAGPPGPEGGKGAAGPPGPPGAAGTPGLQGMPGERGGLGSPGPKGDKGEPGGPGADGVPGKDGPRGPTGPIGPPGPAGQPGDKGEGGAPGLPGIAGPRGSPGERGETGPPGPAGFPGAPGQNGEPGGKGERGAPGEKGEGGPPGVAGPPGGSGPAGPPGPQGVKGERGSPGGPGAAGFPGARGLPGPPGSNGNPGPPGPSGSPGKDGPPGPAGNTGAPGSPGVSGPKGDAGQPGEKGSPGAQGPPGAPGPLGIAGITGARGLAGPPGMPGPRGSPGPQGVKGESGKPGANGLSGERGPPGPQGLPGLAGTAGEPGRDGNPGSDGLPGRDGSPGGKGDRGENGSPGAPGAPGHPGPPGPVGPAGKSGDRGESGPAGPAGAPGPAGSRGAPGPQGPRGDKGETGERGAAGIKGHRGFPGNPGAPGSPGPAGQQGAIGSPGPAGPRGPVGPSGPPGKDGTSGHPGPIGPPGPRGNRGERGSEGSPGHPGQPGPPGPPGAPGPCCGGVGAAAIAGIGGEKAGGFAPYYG
# B1: CID 210987: hetero-dimeric binding protein comprising SEQ ID NO: 10 and SEQ ID NO: 6 linked head-to-tail (protein)
# chain: IAAKFDEAQQAAFYEILHLPNLTEQQRNYFIQWLRDDPSVSLEVLGTAQRLNDSQAPKIAAKFDEAQQLAFYQILHLENLTEEQRNAFIQSLRDDPSVSLEVLGEAIKLNLSQAPK
# modifications: Col2 binding protein (dimer) 210987
# B2: CID 211027: heterodimer with SEQ ID NO: 10 as N-terminal monomer (protein)
# chain: B1 chain with L100A, I107R, L111K
# modifications: Col2 binding protein (dimer) 211027
# B3: CID 210992: heterodimer with SEQ ID NO: 10 as N-terminal monomer (protein)
# chain: B1 chain with L100T, I107E, L111Y
# modifications: Col2 binding protein (dimer) 210992
# B4: CID 212001: tetramer of SEQ ID NO: 2 (protein)
# chain: IAAKFDEAQSAADSEILHLPNLTEQQRHYFRRWLSDDPSVSTHILTQAQHLNDDQAPKIAAKFDEAQSAADSEILHLPNLTEQQRHYFRRWLSDDPSVSTHILTQAQHLNDDQAPKIAAKFDEAQSAADSEILHLPNLTEQQRHYFRRWLSDDPSVSTHILTQAQHLNDDQAPKIAAKFDEAQSAADSEILHLPNLTEQQRHYFRRWLSDDPSVSTHILTQAQHLNDDQAPKSAWSHPQFEK
# modifications: Col2 binding protein (tetramer of 211261) (CID212001)
# B5: CID 211999: dimer of SEQ ID NO: 2 (dimer of directly joint monomers) (protein)
# chain: IAAKFDEAQSAADSEILHLPNLTEQQRHYFRRWLSDDPSVSTHILTQAQHLNDDQAPKIAAKFDEAQSAADSEILHLPNLTEQQRHYFRRWLSDDPSVSTHILTQAQHLNDDQAPKSAWSHPQFEK
# modifications: Col2 binding protein (dimer of 211261) (CID211999)
# Key:
# [1] = Soluble expression in Escherichia coli BL21(DE3); assay type: physicochemical; settings: expression in E. coli BL21(DE3)
# Description: Variants with affinity tag were expressed in Escherichia coli BL21(DE3) using a low copy plasmid system under regulation of a T7 promoter. Proteins were produced in soluble form after induction by lactose included in the medium (autoinduction medium). BL21 (DE3) competent cells were transformed with the expression plasmid, spread onto selective agar plates (kanamycin) and incubated overnight at 37° C. Precultures were inoculated from single colony in 3 ml 2×YT medium supplemented with 50 μg/ml kanamycin and cultured for 6 hours at 37° C. at 200 rpm in a conventional orbital shaker in culture tubes. […] Cultures were transferred to an orbital shaker and incubated at 30° C. and 200 rpm. Recombinant protein expression was induced by metabolizing glucose and subsequently allowing lactose to enter the cells. Cells were grown overnight for approx. 17 hours to reach a final OD600 of about 2-4. Before the harvest, the OD600 was measured, samples adjusted to 0.6/OD600 were withdrawn, pelleted and frozen at −20° C. To collect biomass cells were centrifuged at 12000×g for 15 min at 22° C. Pellets were weighed (wet weight). Cells were stored at −20° C. before processing.
# (§1) Proteins with affinity tag were purified by affinity chromatography and size exclusion. After affinity chromatography purification using Strep-Tactin Superflow high capacity cartridges (IBA Lifesciences) a size exclusion chromatography (SEC) was performed using an Äkta system and a Superdex™ 200 HiLoad 16/600 column (Cytiva). Fused variants with Aflibercept were purified via MabSelect SuRe (Cytiva) affinity chromatography followed by a size exclusion chromatography (SEC) using an Äkta system and a Superdex™ 200 HiLoad 16/600 column (Cytiva). All chromatography processing steps were carried out on AKTA systems using matrices from Cytiva. Homogenous species of all purified ligands were obtained; no aggregation was detected. Following SOS-PAGE analysis positive fractions were pooled and their protein concentrations were measured. Further analysis included SOS-PAGE, SE-HPLC and RP-HPLC. Protein concentrations were determined by absorbance measurement at 280 nm using the molar absorbent coefficient. Reversed phase chromatography (RP-HPLC) was performed using a Dionex HPLC system and a PLRP-S (5 μm, 300 Å) column (Agilent). Analytic size exclusion chromatography (SE-HPLC) was performed using a Dionex HPLC system and a Superdex200 increase 5/150 GL (Cytiva). Binding of Collagen II was evaluated by SPR measurements using a Biacore 3000 system. Purified Collagen II was obtained from Chondrex.inc and VEGF-165 was obtained from Millipore. Targets were immobilized on a CM5-Sensor via NHS/EDC chemistry (immobilization level ˜1000 RU). Binding molecules were injected at different concentration and affinity was calculated by langmuir 1:1 binding model.
# [2] = target: T2, hCol2 (human Type II collagen) (Homo sapiens, UniProt P02458); test: Binding analysis by SPR (Biacore 3000) vs human type II collagen; settings: for Affinity [SPR] vs hCol2: dimers or tetramers, Langmuir 1:1 model
# T2 construct: purchased Chondrex
# Description: as §1
# The purified proteins were immobilized on a CM-5 sensor chip (GE Healthcare) using NHS/EDC after PDEA activation resulting in 110-140 RU with a Biacore 3000 system (GE Healthcare). The chip was equilibrated with SPR running buffer (PBS 0.05% Tween pH 7.3). Upon binding, target analyte was accumulated on the surface increasing the refractive index. This change in the refractive index was measured in real time and plotted as response or resonance units versus time. The analytes were applied to the chip in serial dilutions with a flow rate of 30 μl/min. The association was performed for 120 seconds and the dissociation for 120 seconds. After each run, the chip surface was regenerated with 30 μl regeneration buffer (10 mM glycine pH 2.0) and equilibrated with running buffer.
# Binding studies were carried out by the use of the BIAcore 3000 (GE Healthcare); data evaluation was operated via the BIAevaluation 3.0 software, provided by the manufacturer, using the Langmuir 1:1 model (RI=0). Evaluated dissociation constants (KD) were standardized against the immobilized protein and indicated. Shown is the change in refractive index measured in real time and plotted as response or resonance unit [RU] versus time [sec].
# [3] = target: T3, recombinant human collagen type II (h Col II) (Homo sapiens, UniProt P02458); test: KD-determination by ELISA vs human collagen type II; assay type: binding; settings: for binding affinity (KD) to type II collagen by ELISA, in words: tetramers: of different species
# T3 construct: purchased Chondrex CHX-20051
# Description: (§2) High binding plates (Greiner, 781061) were immobilized with 2.5 μg/ml recombinant human collagen type II (h Col II, Chondrex, CHX-20051), rabbit collagen type II (rbCol II, prepared from rabbit eyes), porcine collagen type II (p Col II, prepared from porcine eyes), human collagen type I, (h Col I, Sigma, C5483-1MG), human collagen type V (h Col V, Abcam, ab7537), human collagen type III (h Col Ill, Abcam, ab7535) and 67B89 (domain of fibronectin, produced in E. coli) respectively over night at 4° C. ELISA-plates were washed 3 times with PBST (PBS+ 0.1% Tween) and blocked with 3% BSA/0.5% Tween/PBS 2 h at RT. After washing with PBST, dilution series of 1.1 μM to 7×10^−4 nM of dimers (CID 211999, CID 212000), dilution series of 100 nM to 7×10^−6 nM of tetramers (CID 212001 and CID 212704) and dilution series of 10 μM to 2 nM of dimer (CID 212705) were incubated on ELISA-plates 1 h at rt. Plates were washed with PBST and incubated with biotinylated anti-StrepTag-ab (Antikörper-online, ABIN1573895) with a dilution of 1:10.000 for 1 h at rt. The binding was visualized with a-rabbit-IgG-HRP (Sigma, A9169) with a dilution of 1:10.000 and as substrate TMB Plus von KEM EN TEC Diagnostic, Kat-Nr. 4395.
# [4] = target: T4, human collagen type I (h Col I) (Homo sapiens, UniProt P02452+P08123); test: ELISA specificity vs human collagen type I; assay type: binding
# T4 construct: purchased Sigma C5483-1MG
# Description: as §2
# [5] = target: T1, human collagen type III; test: ELISA specificity vs human collagen type III; assay type: binding
# Description: as §2
# [6] = target: T5, 67B89 (domain of fibronectin) (Homo sapiens, UniProt P02751); test: ELISA specificity vs 67B89; assay type: binding
# T5 construct: unrelated fibronectin domain EDB (67B89) could be observed; made in house; host or cells: E. coli
# Description: as §2
# [7] = target: T6, human collagen type V (h Col V) (Homo sapiens, UniProt P05997+P20908); test: ELISA specificity vs human collagen type V; assay type: binding
# T6 construct: purchased Abcam ab7537
# Description: as §2
# T3 sequence (P02458 182-1241): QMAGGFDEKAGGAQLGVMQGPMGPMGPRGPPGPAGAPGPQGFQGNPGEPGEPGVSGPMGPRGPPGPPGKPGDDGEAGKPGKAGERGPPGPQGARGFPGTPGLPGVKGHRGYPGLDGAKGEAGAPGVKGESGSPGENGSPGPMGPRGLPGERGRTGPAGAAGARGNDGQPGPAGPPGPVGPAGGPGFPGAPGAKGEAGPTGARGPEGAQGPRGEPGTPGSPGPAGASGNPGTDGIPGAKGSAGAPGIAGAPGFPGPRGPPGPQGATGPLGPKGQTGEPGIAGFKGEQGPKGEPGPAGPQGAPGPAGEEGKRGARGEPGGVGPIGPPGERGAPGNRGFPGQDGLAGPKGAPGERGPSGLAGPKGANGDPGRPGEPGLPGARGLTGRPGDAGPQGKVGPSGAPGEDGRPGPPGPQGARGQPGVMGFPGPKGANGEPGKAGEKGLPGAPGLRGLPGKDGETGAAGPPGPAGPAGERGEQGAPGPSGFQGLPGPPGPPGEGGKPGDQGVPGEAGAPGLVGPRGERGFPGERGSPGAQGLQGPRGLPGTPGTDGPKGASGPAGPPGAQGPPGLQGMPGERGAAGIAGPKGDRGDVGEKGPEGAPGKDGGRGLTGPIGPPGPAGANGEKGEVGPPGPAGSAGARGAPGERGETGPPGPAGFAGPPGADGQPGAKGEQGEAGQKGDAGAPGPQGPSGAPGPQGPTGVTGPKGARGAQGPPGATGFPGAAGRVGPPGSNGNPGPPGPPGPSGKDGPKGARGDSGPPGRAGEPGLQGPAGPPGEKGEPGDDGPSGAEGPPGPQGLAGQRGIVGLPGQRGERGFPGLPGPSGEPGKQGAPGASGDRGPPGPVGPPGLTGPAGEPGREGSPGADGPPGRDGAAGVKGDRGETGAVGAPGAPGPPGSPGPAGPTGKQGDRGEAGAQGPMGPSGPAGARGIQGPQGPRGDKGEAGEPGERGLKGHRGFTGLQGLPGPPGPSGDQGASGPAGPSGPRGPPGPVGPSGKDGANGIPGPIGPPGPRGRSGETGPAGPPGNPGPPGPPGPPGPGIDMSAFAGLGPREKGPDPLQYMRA
# T2 sequence (P02458 182-1241): as above
# T5 sequence (P02751 1089-1540 limits assumed): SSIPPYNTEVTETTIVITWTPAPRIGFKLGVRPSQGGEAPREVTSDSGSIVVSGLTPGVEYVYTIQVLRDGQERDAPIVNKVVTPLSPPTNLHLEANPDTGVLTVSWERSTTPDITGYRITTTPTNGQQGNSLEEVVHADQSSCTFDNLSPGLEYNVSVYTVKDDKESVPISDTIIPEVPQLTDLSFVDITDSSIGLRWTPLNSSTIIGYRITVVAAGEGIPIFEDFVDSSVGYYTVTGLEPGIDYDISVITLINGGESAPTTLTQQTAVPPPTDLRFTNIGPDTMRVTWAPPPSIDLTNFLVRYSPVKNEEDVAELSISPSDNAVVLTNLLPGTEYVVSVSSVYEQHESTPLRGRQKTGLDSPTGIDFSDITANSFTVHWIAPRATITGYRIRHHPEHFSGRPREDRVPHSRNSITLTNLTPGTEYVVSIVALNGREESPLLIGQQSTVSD
# T6 sequence (P20908 38-1605 limits assumed): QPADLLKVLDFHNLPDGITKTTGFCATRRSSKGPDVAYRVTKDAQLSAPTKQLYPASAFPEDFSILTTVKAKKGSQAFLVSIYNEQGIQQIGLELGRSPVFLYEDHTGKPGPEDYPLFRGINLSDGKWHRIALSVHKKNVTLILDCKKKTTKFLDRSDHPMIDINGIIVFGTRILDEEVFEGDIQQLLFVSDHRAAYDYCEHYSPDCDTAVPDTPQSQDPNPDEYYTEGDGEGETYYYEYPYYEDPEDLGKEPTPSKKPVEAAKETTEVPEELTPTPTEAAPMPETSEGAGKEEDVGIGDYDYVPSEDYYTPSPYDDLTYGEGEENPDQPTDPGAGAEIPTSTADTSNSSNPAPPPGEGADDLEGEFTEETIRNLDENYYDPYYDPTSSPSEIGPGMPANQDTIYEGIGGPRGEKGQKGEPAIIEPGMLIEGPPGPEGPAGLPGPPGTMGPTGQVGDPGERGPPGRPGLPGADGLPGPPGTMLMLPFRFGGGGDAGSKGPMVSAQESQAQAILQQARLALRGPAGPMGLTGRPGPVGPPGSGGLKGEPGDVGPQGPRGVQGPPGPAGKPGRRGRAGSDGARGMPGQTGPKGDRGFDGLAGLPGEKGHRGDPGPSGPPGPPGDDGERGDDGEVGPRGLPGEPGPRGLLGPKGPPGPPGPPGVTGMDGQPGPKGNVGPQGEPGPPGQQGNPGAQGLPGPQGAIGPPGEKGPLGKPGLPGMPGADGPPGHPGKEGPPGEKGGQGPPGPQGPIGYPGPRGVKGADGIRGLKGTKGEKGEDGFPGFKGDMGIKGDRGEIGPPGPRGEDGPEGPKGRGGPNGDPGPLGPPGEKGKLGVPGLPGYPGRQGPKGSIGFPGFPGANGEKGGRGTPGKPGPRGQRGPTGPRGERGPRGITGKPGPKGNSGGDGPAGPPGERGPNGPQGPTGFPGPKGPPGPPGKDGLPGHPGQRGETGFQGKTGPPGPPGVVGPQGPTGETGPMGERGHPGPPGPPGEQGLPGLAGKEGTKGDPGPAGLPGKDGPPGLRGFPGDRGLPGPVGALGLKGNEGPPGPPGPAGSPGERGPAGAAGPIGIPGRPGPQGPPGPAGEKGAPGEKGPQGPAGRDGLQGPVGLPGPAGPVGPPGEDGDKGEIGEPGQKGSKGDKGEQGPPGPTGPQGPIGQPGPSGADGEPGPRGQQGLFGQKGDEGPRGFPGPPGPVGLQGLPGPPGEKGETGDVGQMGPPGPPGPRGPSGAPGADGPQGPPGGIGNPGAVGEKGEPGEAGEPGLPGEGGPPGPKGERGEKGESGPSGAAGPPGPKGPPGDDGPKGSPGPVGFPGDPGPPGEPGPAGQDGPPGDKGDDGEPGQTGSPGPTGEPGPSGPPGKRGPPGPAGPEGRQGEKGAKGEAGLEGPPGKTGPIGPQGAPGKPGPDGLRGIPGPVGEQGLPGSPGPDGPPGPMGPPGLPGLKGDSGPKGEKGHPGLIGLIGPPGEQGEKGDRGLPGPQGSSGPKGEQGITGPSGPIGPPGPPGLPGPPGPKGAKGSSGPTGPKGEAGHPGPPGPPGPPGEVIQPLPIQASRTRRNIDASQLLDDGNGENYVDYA
# T6 sequence (P05997 27-1229 limits assumed): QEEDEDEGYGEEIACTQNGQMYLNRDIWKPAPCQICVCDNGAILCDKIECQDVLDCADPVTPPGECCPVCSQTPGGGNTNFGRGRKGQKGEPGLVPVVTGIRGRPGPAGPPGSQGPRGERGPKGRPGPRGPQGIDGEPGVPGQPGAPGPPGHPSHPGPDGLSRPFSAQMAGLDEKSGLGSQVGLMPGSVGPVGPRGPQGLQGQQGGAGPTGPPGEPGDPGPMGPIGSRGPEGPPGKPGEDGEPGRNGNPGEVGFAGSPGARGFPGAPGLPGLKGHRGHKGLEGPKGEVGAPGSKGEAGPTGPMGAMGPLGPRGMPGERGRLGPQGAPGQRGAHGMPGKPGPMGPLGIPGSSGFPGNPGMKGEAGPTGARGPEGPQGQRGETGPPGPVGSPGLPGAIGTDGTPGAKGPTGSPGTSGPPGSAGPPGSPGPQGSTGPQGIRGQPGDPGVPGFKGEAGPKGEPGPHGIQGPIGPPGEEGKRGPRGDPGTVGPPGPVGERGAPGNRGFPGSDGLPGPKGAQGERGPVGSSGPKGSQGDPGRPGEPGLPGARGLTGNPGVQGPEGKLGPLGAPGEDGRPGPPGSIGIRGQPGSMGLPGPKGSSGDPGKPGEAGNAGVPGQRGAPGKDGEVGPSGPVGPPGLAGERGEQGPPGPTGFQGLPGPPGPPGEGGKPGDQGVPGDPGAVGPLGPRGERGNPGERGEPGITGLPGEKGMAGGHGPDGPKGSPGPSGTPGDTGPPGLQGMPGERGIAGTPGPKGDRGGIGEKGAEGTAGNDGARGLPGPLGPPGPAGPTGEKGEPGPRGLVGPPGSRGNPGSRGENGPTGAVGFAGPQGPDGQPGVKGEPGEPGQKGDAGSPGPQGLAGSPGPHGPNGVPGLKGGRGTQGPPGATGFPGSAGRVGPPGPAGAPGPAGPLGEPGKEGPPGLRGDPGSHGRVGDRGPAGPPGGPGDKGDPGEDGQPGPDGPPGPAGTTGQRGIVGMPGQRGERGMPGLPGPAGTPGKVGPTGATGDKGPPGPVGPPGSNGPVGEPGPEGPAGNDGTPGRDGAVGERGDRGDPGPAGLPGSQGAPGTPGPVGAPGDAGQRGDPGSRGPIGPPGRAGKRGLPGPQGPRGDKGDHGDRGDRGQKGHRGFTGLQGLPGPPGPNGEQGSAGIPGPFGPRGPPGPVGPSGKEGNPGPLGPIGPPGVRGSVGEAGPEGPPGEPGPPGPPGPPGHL
molecule,measurement,setting,value
B1,Solubility Soluble expression,[1],80%
same,Affinity [SPR] vs hCol2,[2],169 nM
same,binding affinity (KD) to human type II collagen (ELISA),[3],460 nM
B2,Solubility Soluble expression,[1],85%
B3,Solubility Soluble expression,[1],95%
B4,binding to type I collagen (ELISA),[4],No unspecific binding
same,binding to type III collagen (ELISA),[5],No unspecific binding
same,binding to domain of fibronectin (67B89) (ELISA),[6],No unspecific binding
same,Solubility Soluble expression,[1],100%
same,Binding to type II collagen via SPR,"[2]; FIG. 3, FIG. 4A",binding to type II collagen with high affinity
same,Affinity [SPR] vs hCol2,[2],<0.5 nM
same,"binding affinity (KD) to type II collagen by ELISA, in words",[3],3 digit-picomolar
same,binding to type V collagen (ELISA),[7],No unspecific binding
B5,binding to type I collagen (ELISA),[4],No unspecific binding
same,binding to type III collagen (ELISA),[5],No unspecific binding
same,binding to domain of fibronectin (67B89) (ELISA),[6],No unspecific binding
same,Solubility Soluble expression,[1],100%
same,Affinity [SPR] vs hCol2,[2],127 nM
same,"binding affinity (KD) to type II collagen by ELISA, in words",[3],1-2-digit nM
same,binding to type V collagen (ELISA),[7],No unspecific binding
